± gives the standard deviation of the averaged measurements.
Experiment: total protein half-life in vivo (active degradation + dilution); higher = more stable protein
[1] = E. coli NCM3722 delta-clpP delta-lon delta-hslV, growth: N-lim chemostat, doubling time 6 h
[2] = E. coli NCM3722 delta-clpP, growth: N-lim chemostat, doubling time 6 h
[3] = E. coli NCM3722 delta-hslV, growth: N-lim chemostat, doubling time 6 h
[4] = E. coli NCM3722 delta-lon, growth: N-lim chemostat, doubling time 6 h
[5] = E. coli NCM3722 delta-smpB, growth: N-lim chemostat, doubling time 6 h
[6] = wild type E. coli NCM3722, growth: C-lim chemostat, doubling time 3 h
[7] = wild type E. coli NCM3722, growth: C-lim chemostat, doubling time 6 h
[8] = wild type E. coli NCM3722, growth: C-lim chemostat, doubling time 12 h
[9] = wild type E. coli NCM3722, growth: N-lim chemostat, doubling time 6 h
[10] = wild type E. coli NCM3722, growth: N-lim chemostat, doubling time 12 h
[11] = wild type E. coli NCM3722, growth: P-lim chemostat, doubling time 6 h
[12] = wild type E. coli NCM3722, growth: P-lim chemostat, doubling time 12 h

Row | Sequence | total protein half-life in vivo [1] [h] | total protein half-life in vivo [2] [h] | total protein half-life in vivo [3] [h] | total protein half-life in vivo [4] [h] | total protein half-life in vivo [5] [h] | total protein half-life in vivo [6] [h] | total protein half-life in vivo [7] [h] | total protein half-life in vivo [8] [h] | total protein half-life in vivo [9] [h] | total protein half-life in vivo [10] [h] | total protein half-life in vivo [11] [h] | total protein half-life in vivo [12] [h]
1 | MSLTLTLTGTGGAQGVPAWGCECAACARARRSPQYRRQPCSGVVKFNDAITLIDAGLHDLADRWSPGSFQQFLLTHYHMDHVQGLFPLRWGVGDPIPVYGPPDEQGCDDLFKHPGLLDFSHTVEPFVVFDLQGLQVTPLPLNHSKLTFGYLLETAHSRVAWLSDTAGLPEKTLKFLRNNQPQVMVMDCSHPPRADAPRNHCDLNTVLALNQVIRSPRVILTHISHQFDAWLMENALPSGFEVGFDGMEIGVA | 6.78 | 4.09 ± 0.048 | 4.36 ± 0.11 | 4.56 ± 0.17 | 4.8 | 2.37 | 4.07 | 9.33 ± 0.34 | 4.3 | 7.1 | 4.41 | 8.54 ± 2.5
2 | MAKYNEKELADTSKFLSFVLRHKPEAIGIVLDREGWADIDKLILCAQKAGKRLTRALLDTVVATSDKKRFSYSSDGRCIRAVQGHSTSQVAISFAEKTPPQFLYHGTASRFLDEIKKQGLIAGERHYVHLSADEATARKVGARHGSPVILTVKAQEMAKRGLPFWQAENGVWLTSTVAVEFLEW | 4.33 | 1.59 | – | 2.51 | 1.27 ± 0.11 | 1.85 | 2.25 ± 0.44 | 5.97 | – | – | – | –
3 | MKIELTVNGLKIQAQYQNEEIENVHKPLLHMLAALQTVNPQRRTVVFLCAPPGTGKSTLTTFWEYLAQQDPELPAIQTLPMDGFHHYNSWLDAHQLRPFKGAPETFDVAKLTENLRQVVEGDCTWPQYDRQKHDPVEDALHVTAPLVIVEGNWLLLDDEKWLELASFCDFSIFIHAPAQILRERLISRKIAGGLTRQVAEAFYARTDGPNVERVLMNSRQANLIVEMTEEGRYHFTS | 5.96 | 1.31 | – | – | – | – | – | – | – | – | – | –
4 | MDKKQVTDLRSELLDSRFGAKSISTIAESKRFPLHEMRDDVAFQIINDELYLDGNARQNLATFCQTWDDENVHKLMDLSINKNWIDKEEYPQSAAIDLRCVNMVADLWHAPAPKNGQAVGTNTIGSSEACMLGGMAMKWRWRKRMEAAGKPTDKPNLVCGPVQICWHKFARYWDVELREIPMRPGQLFMDPKRMIEACDENTIGVVPTFGVTYTGNYEFPQPLHDALDKFQADTGIDIDMHIDAASGGFLAPFVAPDIVWDFRLPRVKSISASGHKFGLAPLGCGWVIWRDEEALPQELVFNVDYLGGQIGTFAINFSRPAGQVIAQYYEFLRLGREGYTKVQNASYQVAAYLADEIAKLGPYEFICTGRPDEGIPAVCFKLKDGEDPGYTLYDLSERLRLRGWQVPAFTLGGEATDIVVMRIMCRRGFEMDFAELLLEDYKASLKYLSDHPKLQGIAQQNSFKHT | 6.14 ± 0.21 | 6.13 ± 0.6 | – | 6.24 ± 0.063 | 5.24 ± 0.19 | 3.41 | 6.25 ± 0.14 | – | 5.7107 ± 0.00073 | 10.9 ± 0.24 | 5.97 ± 0.86 | 13.1 ± 0.33
5 | MAGNDREPIGRKGKPTRPVKQKVSRRRYEDDDDYDDYDDYEDEEPMPRKGKGKGKGRKPRGKRGWLWLLLKLAIVFAVLIAIYGVYLDQKIRSRIDGKVWQLPAAVYGRMVNLEPDMTISKNEMVKLLEATQYRQVSKMTRPGEFTVQANSIEMIRRPFDFPDSKEGQVRARLTFDGDHLATIVNMENNRQFGFFRLDPRLITMISSPNGEQRLFVPRSGFPDLLVDTLLATEDRHFYEHDGISLYSIGRAVLANLTAGRTVQGASTLTQQLVKNLFLSSERSYWRKANEAYMALIMDARYSKDRILELYMNEVYLGQSGDNEIRGFPLASLYYFGRPVEELSLDQQALLVGMVKGASIYNPWRNPKLALERRNLVLRLLQQQQIIDQELYDMLSARPLGVQPRGGVISPQPAFMQLVRQELQAKLGDKVKDLSGVKIFTTFDSVAQDAAEKAAVEGIPALKKQRKLSDLETAIVVVDRFSGEVRAMVGGSEPQFAGYNRAMQARRSIGSLAKPATYLTALSQPKIYRLNTWIADAPIALRQPNGQVWSPQNDDRRYSESGRVMLVDALTRSMNVPTVNLGMALGLPAVTETWIKLGVPKDQLHPVPAMLLGALNLTPIEVAQAFQTIASGGNRAPLSALRSVIAEDGKVLYQSFPQAERAVPAQAAYLTLWTMQQVVQRGTGRQLGAKYPNLHLAGKTGTTNNNVDTWFAGIDGSTVTITWVGRDNNQPTKLYGASGAMSIYQRYLANQTPTPLNLVPPEDIADMGVDYDGNFVCSGGMRILPVWTSDPQSLCQQSEMQQQPSGNPFDQSSQPQQQPQQQPAQQEQKDSDGVAGWIKDMFGSN | 6.443 ± 0.011 | 6.43 ± 0.51 | 6.2211 ± 0.00055 | 6.266 ± 0.031 | 6.19 ± 0.56 | 3.17 ± 0.036 | 6.09 ± 0.71 | 12.4 ± 1.3 | 6.01 ± 0.19 | 12.5 ± 0.15 | 6.15 ± 0.58 | 12.4 ± 0.17
6 | MHPMLNIAVRAARKAGNLIAKNYETPDAVEASQKGSNDFVTNVDKAAEAVIIDTIRKSYPQHTIITEESGELEGTDQDVQWVIDPLDGTTNFIKRLPHFAVSIAVRIKGRTEVAVVYDPMRNELFTATRGQGAQLNGYRLRGSTARDLDGTILATGFPFKAKQYATTYINIVGKLFNECADFRRTGSAALDLAYVAAGRVDGFFEIGLRPWDFAAGELLVREAGGIVSDFTGGHNYMLTGNIVAGNPRVVKAMLANMRDELSDALKR [P0ADG4] | 5.94 ± 0.37 | 6.49 ± 1.6 | 5.2 ± 0.23 | – | 5.39 ± 0.47 | 3.01 ± 0.21 | 6.17 ± 0.55 | 12 ± 0.71 | 5.53 ± 0.19 | 10.2 ± 0.39 | 6.063 ± 0.06 | 14 ± 1
